In PMC8167360:

Molecular target: X domain (Mac1) plus Mac2 (Mac1–2) of SARS-CoV Nsp3, purified (SARS-CoV (strain Frankfurt))
Assay: ITC; […] ([…]) […] ([…]) […]; 25°C; VP-ITC; 20 mM Tris–HCl pH 8.5, 150 mM NaCl

B1: middle domain of human Paip1 (Paip1M), purified (domain or fragment)
chain: GSHMASMTGGQQMGRGSTLSEYVQDFLNHLTEQPGSFETEIEQFAETLNGCVTTDDALQELVELIYQQATSIPNFSYMGARLCNYLSHHLTISPQSGNFRQLLLQRCRTEYEVKDQAAKGDEVTRKRFHAFVLFLGELYLNLEIKGTNGQVTRADILQVGLRELLNALFSNPMDDNLICAVKLLKLTGSVLEDAWKEKGKMDMEEIIQRIENVVLDANCSRDVKQMLLKLVELRSS
What does the source list for B1?
Kd: 18.6 µM; dH: -3.73 kcal/mol; stoichiometry N: 1.14
